Measured values from the Human Domainome abundance scans (Beltran et al. 2025).
± gives the uncertainty stated by the source.

B1: Dynamin-binding protein, residues 242 to 304; numbered along this chain, Q6XZF7 (parent)
chain: EEPGTYGVALYRFQALEPNELDFEVGDKIRILATLEDGWLEGSLKGRTGIFPYRFVKLCPDTR

Variants of: B1
Assay: abundance fitness (aPCA) (normalised: wild type 0, dead -1); higher = more abundant; growth selection in yeast, the domain comes from the species named
Settings: Homo sapiens

Question: For EEPGTYGVALYRFQALEPNELDFEVGDKIRILATLENGWLEGSLKGRTGIFPYRFVKLCPDTR, which abundance fitness is on record?
Answer: -0.116 ± 0.06

Question: For EEPGTYGVALYRFQALEPNELDFEVGDKIRILAPLEDGWLEGSLKGRTGIFPYRFVKLCPDTR, which abundance fitness is on record?
Answer: -0.59 ± 0.13

Question: For EEPGTYGVALYRFQALEPNELDFEVGDKIRILATLEDGWLEGSLKGFTGIFPYRFVKLCPDTR, which abundance fitness is on record?
Answer: -0.713 ± 0.086

Question: Which abundance fitness does the source give for EEPGTYGVALYRFQALEPNELDFEVGDKIRILATLEDGWLEGSLKGHTGIFPYRFVKLCPDTR here?
Answer: -0.283 ± 0.08

Question: Which abundance fitness does the source give for EEPGTYGVALYRFQALEPNELDFEVGDKIRILATLEDGWLEGSLKGYTGIFPYRFVKLCPDTR here?
Answer: -0.282 ± 0.073

Question: For EEPGTYGVALYRFQALEPNELDFEVGDKIRILATLEDGWLEGSLKGRTGIFPYRFVKLCGDTR, which abundance fitness is on record?
Answer: 0.003 ± 0.049

Question: Which abundance fitness does the source give for EEPGTYGVALYRFQALEANELDFEVGDKIRILATLEDGWLEGSLKGRTGIFPYRFVKLCPDTR here?
Answer: -0.188 ± 0.063

Question: Which abundance fitness does the source give for EEPGTYGVALYRFQALEWNELDFEVGDKIRILATLEDGWLEGSLKGRTGIFPYRFVKLCPDTR here?
Answer: -0.424 ± 0.11

Question: For EEPGTYGVALYRFQNLEPNELDFEVGDKIRILATLEDGWLEGSLKGRTGIFPYRFVKLCPDTR, which abundance fitness is on record?
Answer: -0.588 ± 0.11

Question: With EEPGTYGVALYRFQVLEPNELDFEVGDKIRILATLEDGWLEGSLKGRTGIFPYRFVKLCPDTR as the variant, how does the abundance fitness read?
Answer: -0.608 ± 0.11

Question: Which abundance fitness does the source give for EEPGTYGVALYRFQALEPNELDFEVGDKIRILATLEDGWLEGSLYGRTGIFPYRFVKLCPDTR here?
Answer: -0.347 ± 0.1

Question: With EEPGTYGVALYRFQALEPNELDFEVGDKIRILATLEDGWLEGSLHGRTGIFPYRFVKLCPDTR as the variant, how does the abundance fitness read?
Answer: 0.081 ± 0.076

Question: Which abundance fitness does the source give for EEPGTYGVALYRFQALEPNELDFEVGDKIRILATLEDGWLEGSLKPRTGIFPYRFVKLCPDTR here?
Answer: -0.611 ± 0.081

Question: Which abundance fitness does the source give for EEPGTYGVALYRFQALEPNELDFEVGDKIRILATLEDGWLEGSLKFRTGIFPYRFVKLCPDTR here?
Answer: -0.687 ± 0.051

Question: Which abundance fitness does the source give for EEPGTYGVALYRFQALEPNELDFEVGDKIRILATLEDGWLEGSLKCRTGIFPYRFVKLCPDTR here?
Answer: -0.719 ± 0.053

Question: For EEPGTYGVALYRFQALEPNELDFEVGDKIRILATLEDEWLEGSLKGRTGIFPYRFVKLCPDTR, which abundance fitness is on record?
Answer: -0.633 ± 0.21

Question: Which abundance fitness does the source give for EEPGTYGVALYRFQALEPNELDFEVGDKIRILATLEDLWLEGSLKGRTGIFPYRFVKLCPDTR here?
Answer: -0.61 ± 0.12

Question: With EEPGTYGVALYRFQALEPNELDFEVGDKIRILATKEDGWLEGSLKGRTGIFPYRFVKLCPDTR as the variant, how does the abundance fitness read?
Answer: 0.137 ± 0.13

Question: Which abundance fitness does the source give for EEPGTYGVALYRFQALEPLELDFEVGDKIRILATLEDGWLEGSLKGRTGIFPYRFVKLCPDTR here?
Answer: -0.52 ± 0.086

Question: With EEPGTYGVALYRFQALEPCELDFEVGDKIRILATLEDGWLEGSLKGRTGIFPYRFVKLCPDTR as the variant, how does the abundance fitness read?
Answer: -0.518 ± 0.074

Question: For EEPGTYGVALYRFQALEPNELDFEVGDKIRILATLEDGWLEGSLKGRTGIFPYRCVKLCPDTR, which abundance fitness is on record?
Answer: -0.075 ± 0.036

Question: With EEPGTYGVALYRFQALEPNELDFEVGDKIRIKATLEDGWLEGSLKGRTGIFPYRFVKLCPDTR as the variant, how does the abundance fitness read?
Answer: -0.588 ± 0.2

Question: For EEPGTYGVALYRFQALEPNELDFEVGDKIRIQATLEDGWLEGSLKGRTGIFPYRFVKLCPDTR, which abundance fitness is on record?
Answer: -0.243 ± 0.14

Question: For EEPGTYGVALYRFQALEPNELDFEVGDKIRILATLEDGWLEGSMKGRTGIFPYRFVKLCPDTR, which abundance fitness is on record?
Answer: -0.58 ± 0.28

Question: Which abundance fitness does the source give for EEPGTYGVALYRFQALEPNELDFEVGDKRRILATLEDGWLEGSLKGRTGIFPYRFVKLCPDTR here?
Answer: -0.649 ± 0.1

Question: Which abundance fitness does the source give for EEPGTYGVALYRFQALEPNELDFEVGDKARILATLEDGWLEGSLKGRTGIFPYRFVKLCPDTR here?
Answer: -0.702 ± 0.11

Question: With EEPDTYGVALYRFQALEPNELDFEVGDKIRILATLEDGWLEGSLKGRTGIFPYRFVKLCPDTR as the variant, how does the abundance fitness read?
Answer: -0.004 ± 0.064

Question: With EEPLTYGVALYRFQALEPNELDFEVGDKIRILATLEDGWLEGSLKGRTGIFPYRFVKLCPDTR as the variant, how does the abundance fitness read?
Answer: -0.05 ± 0.064

Question: For EEPGTYGVALYRFQALEPNELDFEVGDKIFILATLEDGWLEGSLKGRTGIFPYRFVKLCPDTR, which abundance fitness is on record?
Answer: -0.462 ± 0.1

Question: With EEPGTYGVALYRFQALEPNELDFEVGDKIKILATLEDGWLEGSLKGRTGIFPYRFVKLCPDTR as the variant, how does the abundance fitness read?
Answer: 0.268 ± 0.13

Question: Which abundance fitness does the source give for EEPGTYGVALYRFQALEPNELDFEVDDKIRILATLEDGWLEGSLKGRTGIFPYRFVKLCPDTR here?
Answer: -0.568 ± 0.091

Question: With EEPGTYGIALYRFQALEPNELDFEVGDKIRILATLEDGWLEGSLKGRTGIFPYRFVKLCPDTR as the variant, how does the abundance fitness read?
Answer: 0.064 ± 0.061

Question: Which abundance fitness does the source give for EEPGTYGVALYRFQALEPNELDFEVGDKIRMLATLEDGWLEGSLKGRTGIFPYRFVKLCPDTR here?
Answer: -0.755 ± 0.23

Question: Which abundance fitness does the source give for EEPGTYGVALYRFQALEPNELDFEVGDKIRNLATLEDGWLEGSLKGRTGIFPYRFVKLCPDTR here?
Answer: -0.85 ± 0.15

Question: With EEPGTYGVALYRFQALEPNELDFEVGDKIRTLATLEDGWLEGSLKGRTGIFPYRFVKLCPDTR as the variant, how does the abundance fitness read?
Answer: -0.722 ± 0.14

Question: Which abundance fitness does the source give for EEPGTYGVALYRFQALEPNELDFEVGDKIRRLATLEDGWLEGSLKGRTGIFPYRFVKLCPDTR here?
Answer: -0.883 ± 0.14

Question: Which abundance fitness does the source give for EEPGTYGVALYRFQALEPNELDFEVGDKIRILATLEDGWLEGSLKGRTGIFPYRFVKRCPDTR here?
Answer: -0.12 ± 0.056

Question: For EEPGTYGVALYRFQALTPNELDFEVGDKIRILATLEDGWLEGSLKGRTGIFPYRFVKLCPDTR, which abundance fitness is on record?
Answer: -0.157 ± 0.074

Question: Which abundance fitness does the source give for EEPGTYGVALYRFQALYPNELDFEVGDKIRILATLEDGWLEGSLKGRTGIFPYRFVKLCPDTR here?
Answer: -0.234 ± 0.066

Question: For EEPGTYGVALYRFQALEPNELDFEVGDKIRILATLEDGWLEHSLKGRTGIFPYRFVKLCPDTR, which abundance fitness is on record?
Answer: -0.282 ± 0.096

Question: Which abundance fitness does the source give for EEPGTYGVALYRFQALEPNELDFEVGDKIRILATLEDGWLETSLKGRTGIFPYRFVKLCPDTR here?
Answer: -0.997 ± 0.21

Question: With EEPGTYGVALYRFQALEPNELDFEVGDKIRILATLEDGWLELSLKGRTGIFPYRFVKLCPDTR as the variant, how does the abundance fitness read?
Answer: -0.45 ± 0.1

Question: Which abundance fitness does the source give for EEPGTYGVALYRFQALEPNELDFEVGDKIRILATLEDGWLEYSLKGRTGIFPYRFVKLCPDTR here?
Answer: -0.924 ± 0.14
